Laboratory results as given in the supplement of paper PMC12764529.
± gives the half width of the 95% confidence interval.

Test: folding stability dG unfold from chymotrypsin proteolysis; higher = more stable
Summary of the method: (§1)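 Digests were run with trypsin and chymotrypsin at 11 concentrations in threefold dilutions, plus a no-protease condition, on designed mini-proteins in a PA-tagged cDNA display construct. The mini-proteins were under 80 residues, had no cysteine, and were kept only when AlphaFold2 dimer inter-PAE was above 15. After sequencing, Bayesian fitting of the counts gave K50, from which unfolding free energy was derived against a sequence-predicted unfolded-state K50 and a shared folded-state K50, per protease or combined.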

Row | Sequence | folding stability dG unfold
1 | SAGGSAGGSPVIAVRVKRIEVTYDAATGRLTVRIEVEVDGKTYTITVPPGAEIKPGDTLLIEPSAGGSAGGS [r20_49_TrROS_Hall] | 4.434 ± 0.038 kcal/mol
2 | SAGGSAGGSAGPVTITIKVPKEDEEEIEALARELAAALPPPEGAKVTVERNEDGTITITLSAGGSAGGSAGG [r17_324_TrROS_Hall] | 1.6 ± 0.06 kcal/mol
3 | SAGGSAGGSAGGMTAIIVESEEEAKKIAEEKGIKDVKFIPKGKPELLKPDVDKVIKINKKSAGGSAGGSAGG [r7_381_JUSTAS] | 0.348 ± 0.075 kcal/mol
4 | SAGGFKIEIEKNPEPDGIVIVIEYDMPPKGIKDFIEELFGPNPKDVTTEEHPNGRTEVTFRIPPGAPSAGGS [r16_605_TrROS] | 0.33 ± 0.34 kcal/mol
5 | SAGGSAGGSAGGKPLYLRITVKNKDGSEREIVVPLDTTIDDILAALPPNVTEVKIEVFPVSAGGSAGGSAGG [r7_288_TrROS_Hall] | 3.52 ± 0.13 kcal/mol
6 | SAGGSAGGSMIIRIKTENGEEIEIEAESEEEAKKAAEELKKELEEKGYKIEEVEIYEIPEEELSAGGSAGGS [r12_301_TrROS_Hall] | 2.32 ± 0.13 kcal/mol
7 | SMEILEMDIEEILSLLPEDIHPDVPYTLTVPGLEIRILDVAPVREEEGGPRPTTVIEVFLPDGPVVFPLESA [r9_279_TrMRF] | 1.26 ± 0.069 kcal/mol
8 | SAGGSAGGSMVVVRRLPDGRYLLEVRLEGESLRFEVDGEEEVERFAKALEELTGRPVEVLTVESAGGSAGGS [r12_783_TrMRF] | 3.84 ± 0.043 kcal/mol
9 | SAGMKIKIVKIEKEEDGTIRVELEITDPNGNKYRVEAEIDLKDPNKIKIKVINEDTGEEFEIELTIKKPSAG [r5_345_TrROS_Hall] | 5.19 ± 0.2 kcal/mol
10 | SAGGSAGGSAGMRTVEVKVVFKEGDKEFEKTITITLSPDDPSLEERAKEIAEKGIVVEIIRSAGGSAGGSAG [r3_30_JUSTAS] | 1.99 ± 0.12 kcal/mol
11 | SAVVSVDPATGVVTAKVKVDDTELTVTITRDPATGAWPVTFTPPGSGTPVVLDVPFTSVEEAIELAKRLSAG [r14_803_JUSTAS] | 1.56 ± 0.036 kcal/mol
12 | SPVTVTITLPNGETITLTFPAGMTAEELKAAVLAELKRLLPPGAKIEVVDIEVTEVVAPGETVTVTVRLTSA [r9_178_TrROS_Hall] | 4.61 ± 0.15 kcal/mol
13 | SAGKISSIDISPFKLPDGSYPYLLRVSFPDLGTEVDFIFPAKPSDAINFAKELRKSLPNIPLTFSNISSAGG [r19_317_TrMRF] | 1.89 ± 0.11 kcal/mol
14 | SAGGSAGGSAGGGSMLTVKVPETVPEYTSTDPATGKTYNVPPSVPVEVEGSPDSFSILLSAGGSAGGSAGGS [r10_46_JUSTAS] | 0.842 ± 0.095 kcal/mol
15 | SAGGSAGGSAGGLVAKVYRDGKEAVFYFDSPEEMVESIRPLFPDGKEVKVEVTTPEELFSAGGSAGGSAGGS [r10_1167_TrMRF] | 0.22 ± 0.27 kcal/mol
16 | SAGGSAGGSAGIKIPPGQKLSIEENPDGNMEIKFPDPGQKFTIPPNAPIEVDPNNWIYIKSAGGSAGGSAGG [r17_49_TrROS] | 0.0738 ± 0.4 kcal/mol
17 | SASSMSLSFSVSLETDPEKGLLSTVTTTSTVTPYPDSVVTTTTVTTTVTPVPPGPPVVSPSATPVVALSSAG [r14_435_JUSTAS] | 0.593 ± 0.098 kcal/mol
18 | SAGGSAGGSAGGMLYVKVKTEDGEELVLEVEGMTEDEIREELAKAGFKIEEIEVYEVEPSAGGSAGGSAGGS [r10_572_TrROS_Hall] | 2.83 ± 0.018 kcal/mol
19 | SAGGMKLPENAKVVKKIEIKDEKTGKTFKATIVKNKDGSLYIFIEKDGKIYKFKIENGKIKMEEIPPSAGGS [r16_711_TrROS_Hall] | 4.37 ± 0.25 kcal/mol
20 | SAGITLHPDARIILKNPSTGEKIELRSETIRRLIAEILGTDRPEEITAEQINAFALSLGFEEAEFEEPSAGG [r19_67_TrMRF] | 3.312 ± 0.011 kcal/mol
21 | SAGMKLELLLPAEEAVRLFGPDFDARDLARALASEGYVVESVEAEPFPNPEEGGLYLRVTFDVRPPDASAGG [r19_376_TrMRF] | 1.4 ± 0.061 kcal/mol

Test: folding stability dG unfold from trypsin proteolysis; higher = more stable
Summary of the method: as §1

Row | Sequence | folding stability dG unfold
22 | SAGGSAGGSAGGSMTVTLSREELLRLLGVPPGVPIPESVLAKIKSIETLPDGSVTVTIGSAGGSAGGSAGGS [r4_369_JUSTAS] | 1.98 ± 0.027 kcal/mol
23 | SAGGSFLVPTSSMEEAEEIKNAVLAGEPVTVTPPDGVPVTVKAKSVEVDPETGKVRIIDPSGEKLALSAGGS [r16_254_JUSTAS] | 0.201 ± 0.14 kcal/mol
24 | SAGGSAGGSPVFESPEQAKAFLDNVPADSTVLIAVKNPETGEWQLFVVKVPPKRPVGYPGDKDSAGGSAGGS [r12_393_TrMRF] | 1.08 ± 0.065 kcal/mol
25 | SAGGSAGGSKIPPNQFIVRIEIKRRKPNGEKRKHEIIIPVGMPLDTLRDHAPPGYEITDIEVISAGGSAGGS [r12_597_TrROS] | 1.17 ± 0.023 kcal/mol
26 | SAGGSAGGSIRIIFPVDNPEQAENIAEEIAERFGIQIEDIEVEQVPNGMYIVTFEVKIPPEMISAGGSAGGS [r12_577_TrROS] | 2.41 ± 0.13 kcal/mol
27 | SAGGEWHEISIKFPNPEEIEEALREAFPPGMDVDPDVEPNPNGWEVEIEVPRNNPDRVQNAIKEALDSAGGS [r16_43_TrROS] | 0.452 ± 0.035 kcal/mol
28 | SAGGASFSLSEGYDPSLGKTFTRETEAPEVPVPPVTVVPLSEIGRLKAEGVPPSWTVDPETGTVTVTSAGGS [r16_194_JUSTAS] | -0.647 ± 0.19 kcal/mol
29 | SAEVEIEVVEKDGKLYLVIRVRFPPGLKPGDKVTLTLTLPNGAKVTITRDKDGTRYITIVVELKDLEKLSAG [r14_754_TrROS_Hall] | 3.94 ± 0.41 kcal/mol
30 | SAGGSAAEPVVLVFKTPESEALITVPPAFVQRVTVDPGGTVRRITVDLPDGTRTFLITDDSIFVDDSAGGSA [r15_598_TrMRF] | 0.753 ± 0.048 kcal/mol
31 | SAGGGMSTLVRLPPGGVEEREVPPGTEADLNAEFSPESKLVVRTFDPATGRWTETVYEPGGVPTVLSSSAGG [r13_74_JUSTAS] | 2.91 ± 0.082 kcal/mol
32 | SKKTIYIVNEDGSIIRFDEETGEITIFNKETGKEVKIKVEKKGNELIITIEVNGKKYKIKIPKGDIIPIKSA [r9_239_TrROS_Hall] | 2.32 ± 0.062 kcal/mol
33 | SIEVEKTPDGKFEIENDNGWKVEIEVFPGMIEIKIKPVKVYVPDGKWFETPEEAEKMQEKNGVPITEDDLSA [r9_660_TrROS] | 0.615 ± 0.12 kcal/mol
34 | SAGGMYLYKINIKNENEEFFLPILAPEEDEEKVEELAKEISIKLGVKPENIKIEKIEKILGPNGIPVSAGGS [r16_650_TrMRF] | 1.74 ± 0.058 kcal/mol
35 | SAGGSAGGGGTLTIEVDAPAGAKKINIELPGGTVSNLSYDPSTGKATIPFDTPEQAKAVEALVGSAGGSAGG [r6_745_TrMRF] | -0.493 ± 0.097 kcal/mol
36 | SAGGSAGGSAMTITVEVPPSVPAEEAAERVAERLRAEFPVPDIRVTVETTPDGTVTVTITEASAGGSAGGSA [r18_1_JUSTAS] | -0.291 ± 0.16 kcal/mol
37 | SAMLPEGERKPFLVKVKIETPEGTPEFEAPVITEPPQKIHVSIDFDIPEGEHKIKIEFFGPKLEFEFDISAG [r14_280_TrMRF] | 1.87 ± 0.11 kcal/mol
38 | SAGGSAGGSAGGSGSVRIKVYNPKTGEVLELEVPEELVPAAVEAAKALGFEKVEVSPGKSAGGSAGGSAGGS [r4_102_TrMRF] | 1.59 ± 0.065 kcal/mol
39 | SAGMITISEEEARELGVPIGASEEEIKEALAARLREEGYKVEFPSVVKEKVDPKTGKVEYKIDINLKPLSAG [r5_23_JUSTAS] | 1.3 ± 0.051 kcal/mol
40 | SLIPIRPLATSPSGDLLIEVPAEEDLVEEIKKYLKEKFPGYTPVEVKPVESPPLYLVLFSHPSGKKVWLGSA [r9_1164_JUSTAS] | 0.967 ± 0.03 kcal/mol
41 | SAGGSAGGSMLVEVEYEGGERRTFPLENRSVEEAVEALPEGVTRVRVTVYLGEKPVEFEVERPSAGGSAGGS [r12_767_TrMRF] | 0.271 ± 0.077 kcal/mol
42 | SAGGSAGGPNIEIMSMFKHPNGTIVIFIRTPEGRYIVIKIPPPGNIKIVGVYPLPPGDPLLERLSAGGSAGG [r6_715_TrROS] | 2.43 ± 0.17 kcal/mol

Row | Sequence | folding stability dG unfold
43 | SAGGSAGGSPVIAVRVKRIEVTYDAATGRLTVRIEVEVDGKTYTITVPPGAEIKPGDTLLIEPSAGGSAGGS [r20_49_TrROS_Hall] | 4.23 ± 0.098 kcal/mol
44 | SAGGSAGGSAGPVTITIKVPKEDEEEIEALARELAAALPPPEGAKVTVERNEDGTITITLSAGGSAGGSAGG [r17_324_TrROS_Hall] | 1.56 ± 0.15 kcal/mol
45 | SAGGSAGGSAGGMTAIIVESEEEAKKIAEEKGIKDVKFIPKGKPELLKPDVDKVIKINKKSAGGSAGGSAGG [r7_381_JUSTAS] | -0.282 ± 0.22 kcal/mol
46 | SAGGFKIEIEKNPEPDGIVIVIEYDMPPKGIKDFIEELFGPNPKDVTTEEHPNGRTEVTFRIPPGAPSAGGS [r16_605_TrROS] | -0.426 ± 0.43 kcal/mol
47 | SAGGSAGGSAGGKPLYLRITVKNKDGSEREIVVPLDTTIDDILAALPPNVTEVKIEVFPVSAGGSAGGSAGG [r7_288_TrROS_Hall] | 3.36 ± 0.11 kcal/mol
48 | SAGGSAGGSMIIRIKTENGEEIEIEAESEEEAKKAAEELKKELEEKGYKIEEVEIYEIPEEELSAGGSAGGS [r12_301_TrROS_Hall] | 1.13 ± 0.076 kcal/mol
49 | SMEILEMDIEEILSLLPEDIHPDVPYTLTVPGLEIRILDVAPVREEEGGPRPTTVIEVFLPDGPVVFPLESA [r9_279_TrMRF] | 0.872 ± 0.042 kcal/mol
50 | SAGGSAGGSMVVVRRLPDGRYLLEVRLEGESLRFEVDGEEEVERFAKALEELTGRPVEVLTVESAGGSAGGS [r12_783_TrMRF] | 4.56 ± 0.12 kcal/mol
51 | SAGMKIKIVKIEKEEDGTIRVELEITDPNGNKYRVEAEIDLKDPNKIKIKVINEDTGEEFEIELTIKKPSAG [r5_345_TrROS_Hall] | 3.6 ± 0.23 kcal/mol
52 | SAGGSAGGSAGMRTVEVKVVFKEGDKEFEKTITITLSPDDPSLEERAKEIAEKGIVVEIIRSAGGSAGGSAG [r3_30_JUSTAS] | 1.62 ± 0.055 kcal/mol
53 | SAVVSVDPATGVVTAKVKVDDTELTVTITRDPATGAWPVTFTPPGSGTPVVLDVPFTSVEEAIELAKRLSAG [r14_803_JUSTAS] | 1.54 ± 0.02 kcal/mol
54 | SPVTVTITLPNGETITLTFPAGMTAEELKAAVLAELKRLLPPGAKIEVVDIEVTEVVAPGETVTVTVRLTSA [r9_178_TrROS_Hall] | 3.36 ± 0.13 kcal/mol
55 | SAGKISSIDISPFKLPDGSYPYLLRVSFPDLGTEVDFIFPAKPSDAINFAKELRKSLPNIPLTFSNISSAGG [r19_317_TrMRF] | 1.94 ± 0.05 kcal/mol
56 | SAGGSAGGSAGGGSMLTVKVPETVPEYTSTDPATGKTYNVPPSVPVEVEGSPDSFSILLSAGGSAGGSAGGS [r10_46_JUSTAS] | 1.21 ± 0.046 kcal/mol
57 | SAGGSAGGSAGGLVAKVYRDGKEAVFYFDSPEEMVESIRPLFPDGKEVKVEVTTPEELFSAGGSAGGSAGGS [r10_1167_TrMRF] | -0.677 ± 0.16 kcal/mol
58 | SAGGSAGGSAGIKIPPGQKLSIEENPDGNMEIKFPDPGQKFTIPPNAPIEVDPNNWIYIKSAGGSAGGSAGG [r17_49_TrROS] | 0.00801 ± 0.33 kcal/mol
59 | SASSMSLSFSVSLETDPEKGLLSTVTTTSTVTPYPDSVVTTTTVTTTVTPVPPGPPVVSPSATPVVALSSAG [r14_435_JUSTAS] | 1.47 ± 0.04 kcal/mol
60 | SAGGSAGGSAGGMLYVKVKTEDGEELVLEVEGMTEDEIREELAKAGFKIEEIEVYEVEPSAGGSAGGSAGGS [r10_572_TrROS_Hall] | 2.36 ± 0.093 kcal/mol
61 | SAGGMKLPENAKVVKKIEIKDEKTGKTFKATIVKNKDGSLYIFIEKDGKIYKFKIENGKIKMEEIPPSAGGS [r16_711_TrROS_Hall] | 3.75 ± 0.75 kcal/mol
62 | SAGITLHPDARIILKNPSTGEKIELRSETIRRLIAEILGTDRPEEITAEQINAFALSLGFEEAEFEEPSAGG [r19_67_TrMRF] | 2.29 ± 0.031 kcal/mol
63 | SAGMKLELLLPAEEAVRLFGPDFDARDLARALASEGYVVESVEAEPFPNPEEGGLYLRVTFDVRPPDASAGG [r19_376_TrMRF] | 1.37 ± 0.018 kcal/mol
